T1: MERS-CoV (NCoV/Novel coronavirus) Spike Protein S1 Protein (aa 1-725, His Tag) (Sino 40069-V08B1) (MERS-CoV, UniProt K9N5Q8 18-725)
T1 sequence: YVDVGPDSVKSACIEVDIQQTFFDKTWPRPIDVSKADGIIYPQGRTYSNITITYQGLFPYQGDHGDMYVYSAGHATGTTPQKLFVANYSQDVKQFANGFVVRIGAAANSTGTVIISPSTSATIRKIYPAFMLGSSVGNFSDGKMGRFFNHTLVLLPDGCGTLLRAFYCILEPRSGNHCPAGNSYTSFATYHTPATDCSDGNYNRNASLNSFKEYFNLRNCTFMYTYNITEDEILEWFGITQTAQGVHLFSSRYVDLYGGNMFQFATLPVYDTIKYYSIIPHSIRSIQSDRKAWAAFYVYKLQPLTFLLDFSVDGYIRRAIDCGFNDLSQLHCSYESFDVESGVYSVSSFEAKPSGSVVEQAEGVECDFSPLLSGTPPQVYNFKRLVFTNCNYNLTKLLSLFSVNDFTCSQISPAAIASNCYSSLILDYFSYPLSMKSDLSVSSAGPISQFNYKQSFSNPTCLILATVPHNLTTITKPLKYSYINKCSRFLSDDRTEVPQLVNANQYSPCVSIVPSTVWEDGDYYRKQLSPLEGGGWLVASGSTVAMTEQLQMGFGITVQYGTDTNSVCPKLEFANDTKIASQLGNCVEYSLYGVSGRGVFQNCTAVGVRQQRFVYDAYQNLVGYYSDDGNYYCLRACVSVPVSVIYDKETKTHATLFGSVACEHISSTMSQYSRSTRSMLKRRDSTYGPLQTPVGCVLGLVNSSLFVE

T2: MERS-CoV (NCoV/Novel coronavirus) Spike Protein fragment (RBD, aa 367-606, His Tag) (Sino 40071-V08B1) (MERS-CoV, UniProt K9N5Q8 367-606)
T2 sequence: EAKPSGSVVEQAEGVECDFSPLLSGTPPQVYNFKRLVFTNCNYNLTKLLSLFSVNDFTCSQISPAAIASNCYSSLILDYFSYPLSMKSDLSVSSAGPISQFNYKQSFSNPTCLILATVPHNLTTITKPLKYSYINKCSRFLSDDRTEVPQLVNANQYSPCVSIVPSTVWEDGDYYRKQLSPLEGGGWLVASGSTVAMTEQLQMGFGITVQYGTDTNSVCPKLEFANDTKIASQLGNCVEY


Key:
[1] = target: T1, MERS-CoV (NCoV/Novel coronavirus) Spike …; test: Luminex bead assay, supernatant
[2] = target: T2, MERS-CoV (NCoV/Novel coronavirus) Spike …; test: Luminex bead assay, supernatant

Row | Binder | Binding signal (MFI) [1] [MFI] | Binding signal (MFI) [2] [MFI]
1 | mAb10971 (antibody, V domains shown) VH: EVQLVESGGGLIQPGGSLRLSCAASGVTVSSNYMSWVRQAPGKGLEWVSVIYSGGSTFYSDSVKGRFSISRDNSKNTLYLQMNSLRAEDTAVYYCARDLYYYGMDVWGQGTTVTVSS VL: DIQLTQSPSFLSASVGDRVTITCRASQGISTYLAWYQQKPGKAPKLLIYAASTLQSGVPSRFSGSGSGTEFTLTISSLQPEDFATYYCQQLDSYPGLTFGGGTKVEIKR | 19 | –
2 | mAb10930 (antibody, V domains shown) VH: EVQLVESGGGLVQPGRSLRLSCAASGFTFDDYAMYWVRQAPGKGLEWVSGISWNSGSIGYADSVKGRFTISRDNAKNSLYLQMNSLRAADTALYYCAKDKDWNSRGYYYYGMDVWGQGTTVTVSS VL: not shown | 22 | 27
3 | mAb10964 (antibody, V domains shown) VH: QVQLQESGPGLVKPSETLSLTCTVSGGSINNYYWIWIRQPPGKGLEWIGYIYHSGSTNYNPSLKSRVTISVDTSKNQFSLKVSSVTAADTAVYYCANMVRGVYEDDYWGQGTLVTVSS VL: DIQMTQSPSSLSASVGDRVTITCRASQSISNYLNWYQQKPGKAPKLLIFAASSLRSGVPSRFSGSGSGTDFTLTISSLHPEDFATYYCQQNYNTPLTFGPGTKVDIKR | 19 | –
4 | mAb10934 (antibody, V domains shown) VH: not shown VL: DIQMTQSPSSLSASVGDRVTITCQASQDIWNYINWYQQKPGKAPKLLIYDASNLKTGVPSRFSGSGSGTDFTFTISSLQPEDIATYYCQQHDDLPPTFGQGTKVEIKR | 20 | 24
5 | mAb10935 (antibody, V domains shown) VH: EVQLVESGGGLVQPGGSLRLSCAASGFTVSSNYMSWVRQAPGKGLEWVSLIYSGGSTYYADSVKGRFTISRHNSKNTLYLQMNSLRSEDTAVYYCARVPLGDYYYGMDVWGQGTTVTVSS VL: DIQMTQSPSSLSASVGDRVTITCQASQDINKYLNWYQQKPGKAPKLLIYDASNLETGVPSRFSGSGSGTDFTFTISSLQPEDIATYYCQQSDNLPLTFGGGTKVEIKR | – | 25
6 | mAb10938 (antibody, V domains shown) VH: EVQLVESGGGLVQPGGSLRLSCAVSGFTVSSNYMSWVRQAPGKGLEWVSLIYSGGSTFYADSVKGRFTISRHNSKNTLYLQMNSLRAEDTAVYYCAREGGYSYDYNYWGQGTLVTVSS VL: DIQMTQSPSSLSASVGDRVTITCQASQDIRNYLNWYQQKPGKAPKLLIYDASNLETGVPSRFSGIGSGTDFTFTISSLQPEDIATYYCQQYDNLPITFGQGTRLEIKR | 20 | 25
7 | mAb10969 (antibody, V domains shown) VH: QVQLVESGGGVVQPGRSLRLSCAASGFTFSSYAMHWVRQAPGKGLEWVAVISYDGSNKYYADSVKGRFTISRDNSKNTLYLQMNSLRAEDTAVYYCARDGRTITMVRGVIDDAFDIWGQGTMVTVSS VL: not shown | 19 | –
8 | mAb10921 (antibody, V domains shown) VH: EVQLVESGGGLVQPGGSLRLSCAASGITVSSNYMSWVRQAPGKGLEWVSVIYSGGSTFYADSVKGRFTISRHNSKNTLYLQMNSLRAEDTAVYYCARERNFDAFDIWGQGTMVTVSS VL: DIQMTQSPSSVSASVGDRVTITCRASQGISSWLAWYQQKPGKAPKLLIYAASSLQSGVPSRFSGSGSGTDFTLTISSLQPEDFATYYCQQANSFPLFTFGPGTKVDIKR | – | 23
9 | mAb10914 (antibody, V domains shown) VH: EVQLVESGGGLVQPGGSLRLSCAASGLIVSRNYMIWVRQAPGKGLEWVSVIYSGGSTFYADSVKGRFTISRHNSKNTLYLQMNSLRAEDTAVYYCARDLGTGGMDVWGQGTTVTVSS VL: DIQLTQSPSFLSASVGDRVTITCWASQGISSYLAWYQQKPGKAPKLLIYAASTLQSGVPSRFSGSGSGTEFTLTISSLQPEDFATYYCQQLNSYPLTFGGGTKVEIKR | 23 | 31
10 | mAb10957 (antibody, V domains shown) VH: EVQLVESGGGLVQPGGSLRLSCAASGVTVSSNYMSWVRQAPGKGLEWVSVIYSGGSTFYADSVKGRFTISRDNSKNTLFLQMNSLRIEDTAVYYCARDLGPYGMDVWGQGTTVTVSS VL: DIQLTQSPSFLSASVGDRVTITCRASQGISSYLAWYQQKPGKAPKLLIYAASTLQSGVPSRFSGSGSGTQFILTISSLQPEDFATYYCQQLNSYPGFTFGPGTKVDIKR | 19 | –
11 | mAb10936 (antibody, V domains shown) VH: QVQLVESGGGVVQPGRSLRLSCAASGFTFRNYGMHWVRQAPGKGLEWVSVIWYDGSNRYYADSVKGRFTISRDTSKNTLYLQMNSLRAEDTAVYYCARDPPITGTTGGDAFDIWGQGTMVTVSS VL: not shown | 20 | 29
12 | mAb10937 (antibody, V domains shown) VH: QITLKESGPTLVKPTQTLTLTCTFSGFSLSTNVVGVGWIRQPPGKALEWLALIYWNDDKRYSPSLKSRLTITKDTSKNQVVLTMTNMDPVDTATYYCAHGPTGDYFDYWGQGTLVTVSS VL: not shown | 22 | 27
13 | mAb10984 (antibody, V domains shown) VH: EVQLVESGGGLVQPGGSLRLSCAASGLTVNRNYMSWVRQAPGKGLEWVSLIYSGGSTYYADSVKGRFTISRDNSKNTLYLQMNSLRLEDTAVYYCARGELGIPYGMDVWGQGTTVTVSS VL: QSVLTQPPSVSAAPGQKVTISCSGSSSNIGNNYVSWYQQLPGTAPKLLIYDNNKRPSGIPDRFSGSKSGTSATLGITGLQTGDEADYYCGTWDSSLSAGVFGGGTKLTVLG | 20 | 29
14 | mAb10913 (antibody, V domains shown) VH: EVQLVESGGGLVQPGGSLRLSCAASGFTFRNYEMNWVRQAPGKGLEWVSYITSSGSTMYYADSVKGRFTISRDNAKNSLYLQMNSLRAEDTAVYYCARDGFYYYYAMDVWGQGTTVTVSS VL: QSVLTQPPSVSAAPGQKVTISCSGSSSNIGNNYVSWYQQLPGTAPKLLIYDNNKRPSGIPDRFSGSKSGTSATLGITGLQTGDEADYYCGTWDSSLSVGRVFGTGTKVTVLG | 26 | 34
15 | mAb10920 (antibody, V domains shown) VH: QVQLVESGGGVVQPGRSLRLSCAASGFTFSYYGMHWVRQAPGKGLEWVAVIWYDGSNKFYADSVKGRFTISRDNSKNTLYLQMNSLRAEDTAVYYCAAARPGYYYGMDVWGQGTTVTVSS VL: DIQMTQSPSSLSASVGDRVTITCRASQGISNYLAWFQQKPGKAPNSLIYAASSLQRGVPSKFSGSGSGTDFTLTISSLQPEDFATYYCQQYNSYPRTFGQGTKVEIKR | 27 | 39
16 | mAb10923 (antibody, V domains shown) VH: QVQLVQSGAEVKKPGASVKVSCKASGYTFINYYIHWVRQAPGQGLEWMGWINPNSGGTNYAQKFQGRVTMTRDTSISTAYMELSRLRSDDTAVYYCAIITIFGVVTWFDPWGQGTLVTVSS VL: not shown | 25 | 37
17 | mAb10982 (antibody, V domains shown) VH: EVQLVESGGGLVQPGGSLRLSCAASGLTVSSNYMSWVRQAPGKGLEWVSVIYSGGTTYYADSVKGRFTISRHNSKNTLSLQMNSLRAEDTAVYYCARGEGANYYGMDVWGQGTTVTVSS VL: QSVLTQPPSVSGAPGQRVTISCTGSSSNIGTGYDVHWYQQLPGTAPKLLIYGNSNRPSGVPDRFSGSKSGTSASLAITGLQAEDEADYYCQSYDSSLSGYVVFGGGTKLTVLG | – | 29
18 | mAb10986 (antibody, V domains shown) VH: EVQLVESGGGLVQPGGSLRLSCAASEFTVSSNYMSWVRQAPGKGLEWVSVIYSGGSTFYADSVKGRFTISRDNSKNTLYLQMNSLRAEDTAVYYCARALPYGDLHFDYWGQGTLVTVSS VL: QSVLTQPPSVSGAPGQRVTISCTGSSSNIGTGYDVHWYQQLPGTAPKLLIYGNTNRPSGVPDRFSGSKSGTSASLAITGLQAEDEADYYCQSYDSSLSDSYVFGTGTKVTVLG | 20 | 27
19 | mAb10985 (antibody, V domains shown) VH: EVQLVESGGGLVQPGRSLRLSCAASGFTFDDYAMHWVRQAPGKGLEWVSGISWNRGSIGYADSVKGRFTISRDNAKNSLYLQMSSLRAEDTALYYCAKDGERWDSVVVPSARNGMDVWGQGTTVTVSS VL: QSVLTQPPSVSGAPGQRVTISCTGSSSNIGAGYDVHWYQQLPGTAPKLLIYGNSNRPSGVPDRFSGSKSGTSASLAITGLQAEDEADYYCQSYDSSLSGSYVFGTGTKVTVLG | 22 | 31
